Assay [1] addresses UBC2, At2g02760 (Arabidopsis thaliana) (UniProt P42745). Briefly: GS-TAP purification + MALDI-TOF-TOF MS, bait UBC2 (third block); expectance is the MS identification score.
Assay [2] addresses HUB1 (Histone Monoubiquitination 1), At2g44950, Arabidopsis thaliana (Arabidopsis thaliana) (UniProt Q8RXD6). Kind of assay: GS-TAP purification + MALDI-TOF-TOF MS, bait HUB1 (a′); expectance is the MS identification score.
Assay [3] deals with T1, HUB2, At1g55250, Arabidopsis thaliana (Arabidopsis thaliana, UniProt Q9C895 1-900).
T1 construct: As prey the endogenous protein of Arabidopsis cell culture; as bait N-terminal GS-TAP fusion; in yeast two-hybrid an AD fusion; also called AAG51572.1
T1 sequence: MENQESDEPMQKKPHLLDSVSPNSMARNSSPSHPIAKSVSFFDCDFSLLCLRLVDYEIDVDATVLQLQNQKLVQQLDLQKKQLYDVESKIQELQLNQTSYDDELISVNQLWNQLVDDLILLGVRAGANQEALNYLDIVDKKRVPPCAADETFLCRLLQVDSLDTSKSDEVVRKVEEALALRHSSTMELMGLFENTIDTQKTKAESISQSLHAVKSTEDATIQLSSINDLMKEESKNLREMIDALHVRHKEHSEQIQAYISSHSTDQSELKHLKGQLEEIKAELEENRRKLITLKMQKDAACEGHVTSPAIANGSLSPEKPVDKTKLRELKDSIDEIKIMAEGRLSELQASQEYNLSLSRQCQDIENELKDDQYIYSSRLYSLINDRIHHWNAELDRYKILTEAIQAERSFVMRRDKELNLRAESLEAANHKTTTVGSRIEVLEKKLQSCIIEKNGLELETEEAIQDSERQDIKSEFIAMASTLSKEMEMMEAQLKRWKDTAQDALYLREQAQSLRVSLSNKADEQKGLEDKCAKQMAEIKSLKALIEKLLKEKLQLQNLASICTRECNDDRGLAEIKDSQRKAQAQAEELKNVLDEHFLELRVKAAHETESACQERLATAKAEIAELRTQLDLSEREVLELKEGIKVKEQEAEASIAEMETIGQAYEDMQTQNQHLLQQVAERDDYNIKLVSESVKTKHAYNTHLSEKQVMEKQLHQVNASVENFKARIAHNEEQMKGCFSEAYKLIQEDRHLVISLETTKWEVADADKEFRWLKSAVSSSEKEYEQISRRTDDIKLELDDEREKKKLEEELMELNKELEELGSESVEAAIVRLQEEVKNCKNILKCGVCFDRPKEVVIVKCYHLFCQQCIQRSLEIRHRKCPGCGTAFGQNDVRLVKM
Kind of assay: GS-TAP purification + MALDI-TOF-TOF MS, bait HUB2 (a); expectance is the MS identification score.

Assay [4] addresses Spen like protein, At1g27750 (Arabidopsis thaliana). Briefly: GS-TAP purification + MALDI-TOF-TOF MS, bait SL (b); expectance is the MS identification score.
The target of assay [5] is T1, HUB2, At1g55250, Arabidopsis thaliana. Kind of assay: GS-TAP purification + MALDI-TOF-TOF MS, bait HUB2 (b); expectance is the MS identification score.
In assay [6] the target is Spen like protein, At1g27750 (Arabidopsis thaliana). Briefly: GS-TAP purification + MALDI-TOF-TOF MS, bait SL (a); expectance is the MS identification score.
Assay [7] deals with HUB1 (Histone Monoubiquitination 1), At2g44950, Arabidopsis thaliana (Arabidopsis thaliana) (UniProt Q8RXD6). Kind of assay: GS-TAP purification + MALDI-TOF-TOF MS, bait HUB1 (b′); expectance is the MS identification score.
The target is the same in assay [8]. Kind of assay: GS-TAP purification + MALDI-TOF-TOF MS, bait HUB1 (b); expectance is the MS identification score.
Assay [9] addresses SEUSS, At1g43850 (Arabidopsis thaliana) (UniProt Q8W234). Briefly: GS-TAP purification + MALDI-TOF-TOF MS, bait SEUSS (b); expectance is the MS identification score.
Assay [10] shares this target. Kind of assay: GS-TAP purification + MALDI-TOF-TOF MS, bait SEUSS (a); expectance is the MS identification score.
Assay [11] deals with T1, HUB2, At1g55250, Arabidopsis thaliana. Kind of assay: yeast two-hybrid.
For assay [12], the target named is T2, HUB1 (Histone Monoubiquitination 1), At2g44950, Arabidopsis thaliana (Arabidopsis thaliana, UniProt Q8RXD6 1-878).
T2 construct: Full length HUB1; In the TAP experiments N-terminally fused to the TAP tag or the GS-TAP tag; in yeast two-hybrid fused to AD (pDEST22) or BD (pDEST32); all these constructs are written under this one entry; also called HUB1fl; full length HUB1
T2 sequence: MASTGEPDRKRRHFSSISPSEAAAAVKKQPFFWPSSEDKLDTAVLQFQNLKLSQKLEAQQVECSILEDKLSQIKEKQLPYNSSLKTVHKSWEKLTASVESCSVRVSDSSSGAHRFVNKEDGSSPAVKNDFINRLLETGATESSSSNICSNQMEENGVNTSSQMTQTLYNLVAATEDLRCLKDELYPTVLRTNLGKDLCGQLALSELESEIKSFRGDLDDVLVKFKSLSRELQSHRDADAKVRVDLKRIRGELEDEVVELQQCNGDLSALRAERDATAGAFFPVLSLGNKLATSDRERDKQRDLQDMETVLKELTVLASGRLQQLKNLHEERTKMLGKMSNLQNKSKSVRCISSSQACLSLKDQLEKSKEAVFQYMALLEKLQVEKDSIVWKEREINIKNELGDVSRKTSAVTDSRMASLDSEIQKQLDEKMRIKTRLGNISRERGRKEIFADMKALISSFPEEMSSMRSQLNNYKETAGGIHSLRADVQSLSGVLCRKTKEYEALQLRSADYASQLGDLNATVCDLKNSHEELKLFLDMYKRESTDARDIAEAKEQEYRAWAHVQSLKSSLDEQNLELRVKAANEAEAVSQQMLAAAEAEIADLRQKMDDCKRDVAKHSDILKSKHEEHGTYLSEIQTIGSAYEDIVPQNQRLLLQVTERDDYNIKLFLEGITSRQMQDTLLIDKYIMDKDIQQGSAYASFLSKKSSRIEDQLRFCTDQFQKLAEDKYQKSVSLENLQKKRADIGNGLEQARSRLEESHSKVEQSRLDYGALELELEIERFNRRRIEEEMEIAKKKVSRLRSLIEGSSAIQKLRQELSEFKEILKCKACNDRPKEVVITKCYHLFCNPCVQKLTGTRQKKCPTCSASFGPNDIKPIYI
Briefly: yeast two-hybrid.

Chain of SEUSS, At1g43850 (Arabidopsis thaliana) (Q8W234 whole entry): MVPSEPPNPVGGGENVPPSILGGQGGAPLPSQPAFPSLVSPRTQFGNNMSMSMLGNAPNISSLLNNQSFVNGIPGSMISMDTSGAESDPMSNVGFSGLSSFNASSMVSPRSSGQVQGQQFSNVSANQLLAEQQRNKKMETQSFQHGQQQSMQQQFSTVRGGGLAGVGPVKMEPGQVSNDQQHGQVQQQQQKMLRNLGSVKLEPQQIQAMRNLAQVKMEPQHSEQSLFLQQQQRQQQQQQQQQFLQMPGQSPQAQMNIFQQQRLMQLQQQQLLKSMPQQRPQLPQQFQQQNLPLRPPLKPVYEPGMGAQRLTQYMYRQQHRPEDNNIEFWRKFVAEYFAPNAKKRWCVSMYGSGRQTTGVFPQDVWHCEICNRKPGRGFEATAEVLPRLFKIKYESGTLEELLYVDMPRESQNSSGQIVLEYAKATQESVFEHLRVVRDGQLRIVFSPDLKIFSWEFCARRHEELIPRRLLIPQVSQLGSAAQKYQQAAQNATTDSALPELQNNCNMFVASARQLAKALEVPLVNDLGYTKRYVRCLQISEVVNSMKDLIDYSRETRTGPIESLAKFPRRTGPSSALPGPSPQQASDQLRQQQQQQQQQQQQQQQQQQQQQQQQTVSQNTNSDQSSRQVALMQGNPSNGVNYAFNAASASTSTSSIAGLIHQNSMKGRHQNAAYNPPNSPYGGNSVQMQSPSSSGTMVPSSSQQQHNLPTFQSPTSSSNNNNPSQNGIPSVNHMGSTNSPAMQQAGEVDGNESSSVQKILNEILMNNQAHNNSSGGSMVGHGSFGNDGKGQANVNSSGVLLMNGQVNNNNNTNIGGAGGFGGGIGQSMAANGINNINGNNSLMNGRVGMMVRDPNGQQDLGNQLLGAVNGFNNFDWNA

In the case of “AtUBA1, AT2G30110 (from UniProt P93028 1-1080) (enzyme)”, the Expectance in assay [1] worked out at 0.00082.
As for “AtUBA2, AT5G06460 (from UniProt P92974 1-1077) (enzyme)”, the Expectance in assay [1] came out at 0.00026.
As for KH domain protein, At1g51580, the Expectance in [2] is 2.1e-09; in assay [3], 1.3e-08; in assay [4], 2.6e-12; in assay [5] it was 1.6e-09; in assay [6], 0.00054; in assay [7], 3.3e-09. In addition, the Expectance in [8] was determined as 1.6e-08.
For “LUH, At2G32700 (from UniProt O48847 1-787)”, the Expectance in assay [9] amounted to 2.1e-82; in [10], 3.3e-99.
As to Spen like protein, At1g27750, the Expectance was 6.5e-16 in assay [2], 0.00097 in assay [3], 1e-24 in [5] and 0.024 in assay [7].

B1: UBC3 (E2 conjugating enzyme, Arabidopsis thaliana) (enzyme, UniProt P42746 1-150, looked up)
chain: MTTPAKKRLMWDFKRLQKDPPVGISGAPQDNNIMHWNALIFGPEDTPWDGGTFKLTLHFTEDYPNKPPIVRFVSRMFHPNIYADGSICLDILQNQWSPIYDVAAVLTSIQSLLCDPNPDSPANAEAARLFSENKREYNRKVIEIVEQSYV
notes: Yeast two-hybrid fusion
On to B1, for which the binding result in assay [11] and in assay [12] was “no binding” each time.

B2: UBC1 (E2 conjugating enzyme, Arabidopsis thaliana) (enzyme, UniProt P25865 1-152, looked up)
chain: MSTPARKRLMRDFKRLQQDPPAGISGAPQDNNIMLWNAVIFGPDDTPWDGGTFKLSLQFSEDYPNKPPTVRFVSRMFHPNIYADGSICLDILQNQWSPIYDVAAILTSIQSLLCDPNPNSPANSEAARMYSESKREYNRRVRDVVEQSWTAD
notes: Yeast two-hybrid fusion
Take B2: the binding result in [11] and in assay [12] was “no binding” throughout.

B3: UBC2, At2g02760 (enzyme, Arabidopsis thaliana, UniProt P42745 1-152, looked up)
chain: MSTPARKRLMRDFKRLQQDPPAGISGAPQDNNIMLWNAVIFGPDDTPWDGGTFKLSLQFSEDYPNKPPTVRFVSRMFHPNIYADGSICLDILQNQWSPIYDVAAILTSIQSLLCDPNPNSPANSEAARMFSESKREYNRRVREVVEQSWTAD
notes: As bait N-terminal GS-TAP fusion; fusion protein in yeast two-hybrid; also called E2 conjugating enzyme UBC2
As to B3, the binding result in assay [11] and in [12] was “no binding” each time.

The values above are taken from patent publication US20110162109A1 (BASF PLANT SCIENCE, published 2011).
